pKd: −log10 of the molar value. Where two headings read alike, the source gives them in different places.
Experiments:
[1] = biological target: Myelin-associated glycoprotein (Homo sapiens) (UniProt P20916); details: cited from earlier work
SIP (Homo sapiens) = SIP (Homo sapiens) (UniProt Q9HB71); details: cited from earlier work
[2] = biological target: TRTK-12 TRTK-12 (Homo sapiens) (UniProt P52907); details: cited from earlier work
[3] = biological target: RAGE 129-336 (Homo sapiens) (UniProt Q15109); details: cited from earlier work
[4] = biological target: p53 362-393 (Homo sapiens) (UniProt P04637); details: cited from earlier work
S100B [5] = biological target: S100B (UniProt P04271); assay: NMR titration
S100B [6] = biological target: S100B (UniProt P04271); assay: NMR titration; remark: listed apart in the source

S100B (from UniProt P04271), sequence (P04271 2-92): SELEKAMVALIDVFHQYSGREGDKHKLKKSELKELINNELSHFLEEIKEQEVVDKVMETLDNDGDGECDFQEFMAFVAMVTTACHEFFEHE
S100B (UniProt P04271), sequence (P04271 2-92): as above
RAGE 129-336 (Homo sapiens), sequence (Q15109 129-336): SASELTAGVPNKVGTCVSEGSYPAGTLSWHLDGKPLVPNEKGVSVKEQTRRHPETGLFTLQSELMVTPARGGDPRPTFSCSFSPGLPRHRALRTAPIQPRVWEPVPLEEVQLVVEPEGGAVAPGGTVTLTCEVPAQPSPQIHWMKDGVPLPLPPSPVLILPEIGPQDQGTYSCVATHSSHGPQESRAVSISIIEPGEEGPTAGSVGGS
p53 362-393 (Homo sapiens), sequence (P04637 362-393): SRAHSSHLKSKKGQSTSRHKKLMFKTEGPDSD
S100A2, sequence (P29034 whole entry): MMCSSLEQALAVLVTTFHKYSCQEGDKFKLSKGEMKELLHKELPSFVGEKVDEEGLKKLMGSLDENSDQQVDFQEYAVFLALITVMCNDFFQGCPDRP
SIP (Homo sapiens), sequence (Q9HB71 2-228): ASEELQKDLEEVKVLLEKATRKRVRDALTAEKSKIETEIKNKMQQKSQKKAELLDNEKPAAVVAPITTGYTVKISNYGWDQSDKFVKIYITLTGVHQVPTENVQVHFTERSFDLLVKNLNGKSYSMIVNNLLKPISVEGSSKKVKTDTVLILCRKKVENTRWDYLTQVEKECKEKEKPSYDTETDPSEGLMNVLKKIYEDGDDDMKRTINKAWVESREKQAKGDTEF
Myelin-associated glycoprotein (Homo sapiens), sequence (P20916 20-626): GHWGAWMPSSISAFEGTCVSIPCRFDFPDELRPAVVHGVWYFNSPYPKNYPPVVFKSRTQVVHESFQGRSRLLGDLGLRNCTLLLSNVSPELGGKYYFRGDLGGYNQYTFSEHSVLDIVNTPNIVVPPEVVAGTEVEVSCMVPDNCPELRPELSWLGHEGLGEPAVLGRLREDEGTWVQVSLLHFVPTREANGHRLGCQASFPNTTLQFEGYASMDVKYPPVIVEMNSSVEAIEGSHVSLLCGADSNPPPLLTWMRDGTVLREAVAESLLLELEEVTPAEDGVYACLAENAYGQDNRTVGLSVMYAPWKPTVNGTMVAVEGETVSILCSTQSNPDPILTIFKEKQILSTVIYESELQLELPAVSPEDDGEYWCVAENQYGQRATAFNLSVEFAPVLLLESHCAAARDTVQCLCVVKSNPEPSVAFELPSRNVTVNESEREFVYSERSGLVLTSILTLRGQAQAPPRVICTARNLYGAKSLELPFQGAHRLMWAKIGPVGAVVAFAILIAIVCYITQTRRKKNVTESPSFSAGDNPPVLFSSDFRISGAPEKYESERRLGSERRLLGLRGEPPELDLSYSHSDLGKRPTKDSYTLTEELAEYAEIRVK
S100A12, sequence (P80511 2-92): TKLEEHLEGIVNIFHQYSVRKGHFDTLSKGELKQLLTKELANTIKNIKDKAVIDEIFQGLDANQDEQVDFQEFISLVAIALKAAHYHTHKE

S100B (from UniProt P04271)
pKd [1]: 5.15
pKd (SIP (Homo sapiens)): 5.30
pKd [2]: 6.52

S100A12 (from UniProt P80511)
pKd [3]: 3.85

S100A2 (from UniProt P29034)
pKd [4]: 3.97

IC3-M28 (from UniProt P61169-2 288-315) (peptide)
pKd (S100B [5]): 3.83
pKd (S100B [6]): 3.83

IC3-C30 (from UniProt P61169-2 316-345) (peptide)
pKd (S100B [6]): 4.01
